“And” between values parts separate entries of the source, which are not always exact repeats. Equal values may be shown once.
What was measured:
[1] = biological target: human DLL3 endogenously expressed on SHP77 and NCI-H82 cells (human) (UniProt Q9NYJ7); assay: FACS SHP77 cells, 4 nM
[2] = biological target: human DLL3 endogenously expressed on SHP77 and NCI-H82 cells (human) (UniProt Q9NYJ7); assay: FACS SHP77 cells, 20 nM
[3] = biological target: human DLL3 endogenously expressed on SHP77 and NCI-H82 cells (human) (UniProt Q9NYJ7); assay: FACS SHP77 cells, 0.8 nM
[4] = biological target: human DLL3 endogenously expressed on SHP77 and NCI-H82 cells (human) (UniProt Q9NYJ7); assay: FACS SHP77 cells, 100 nM
[5] = biological target: human DLL3 endogenously expressed on SHP77 and NCI-H82 cells (human) (UniProt Q9NYJ7); assay: FACS SHP77 cells, 0.16 nM
[6] = biological target: human DLL3 endogenously expressed on SHP77 and NCI-H82 cells (human) (UniProt Q9NYJ7); assay: FACS SHP77 cells, 0.032 nM
[7] = biological target: human DLL3 endogenously expressed on SHP77 and NCI-H82 cells (human) (UniProt Q9NYJ7); assay: FACS SHP77 cells, 0.0064 nM
[8] = biological target: human DLL3 endogenously expressed on SHP77 and NCI-H82 cells (human) (UniProt Q9NYJ7); assay: FACS SHP77 cells, 0.00128 nM
[9] = biological target: human DLL1 protein (human) (UniProt O00548); assay: ELISA, maximum over 0.1-100 nM
[10] = biological target: human DLL4 protein (human) (UniProt Q9NR61); assay: ELISA, maximum over 0.1-100 nM
[11] = biological target: monkey DLL3 on CHO K1-cyno DLL3 cells (cynomolgus monkey DLL3 extracellular segment joined to EpCAM transmembrane and intracellular regions) (cynomolgus monkey); assay: FACS, CHO K1-cyno DLL3 cells, 4 nM antibody
[12] = biological target: monkey DLL3 on CHO K1-cyno DLL3 cells (cynomolgus monkey DLL3 extracellular segment joined to EpCAM transmembrane and intracellular regions) (cynomolgus monkey); assay: FACS, CHO K1-cyno DLL3 cells, 20 nM antibody
[13] = biological target: monkey DLL3 on CHO K1-cyno DLL3 cells (cynomolgus monkey DLL3 extracellular segment joined to EpCAM transmembrane and intracellular regions) (cynomolgus monkey); assay: FACS, CHO K1-cyno DLL3 cells, 0.8 nM antibody
[14] = biological target: monkey DLL3 on CHO K1-cyno DLL3 cells (cynomolgus monkey DLL3 extracellular segment joined to EpCAM transmembrane and intracellular regions) (cynomolgus monkey); assay: FACS, CHO K1-cyno DLL3 cells, 100 nM antibody
[15] = biological target: monkey DLL3 on CHO K1-cyno DLL3 cells (cynomolgus monkey DLL3 extracellular segment joined to EpCAM transmembrane and intracellular regions) (cynomolgus monkey); assay: FACS, CHO K1-cyno DLL3 cells, 0.16 nM antibody
[16] = biological target: monkey DLL3 on CHO K1-cyno DLL3 cells (cynomolgus monkey DLL3 extracellular segment joined to EpCAM transmembrane and intracellular regions) (cynomolgus monkey); assay: FACS, CHO K1-cyno DLL3 cells, 0.032 nM antibody
[17] = biological target: monkey DLL3 on CHO K1-cyno DLL3 cells (cynomolgus monkey DLL3 extracellular segment joined to EpCAM transmembrane and intracellular regions) (cynomolgus monkey); assay: FACS, CHO K1-cyno DLL3 cells, 0.0064 nM antibody
[18] = biological target: monkey DLL3 on CHO K1-cyno DLL3 cells (cynomolgus monkey DLL3 extracellular segment joined to EpCAM transmembrane and intracellular regions) (cynomolgus monkey); assay: FACS, CHO K1-cyno DLL3 cells, 0.00128 nM antibody

human DLL3 endogenously expressed on SHP77 and NCI-H82 cells (human), sequence (Q9NYJ7 27-618): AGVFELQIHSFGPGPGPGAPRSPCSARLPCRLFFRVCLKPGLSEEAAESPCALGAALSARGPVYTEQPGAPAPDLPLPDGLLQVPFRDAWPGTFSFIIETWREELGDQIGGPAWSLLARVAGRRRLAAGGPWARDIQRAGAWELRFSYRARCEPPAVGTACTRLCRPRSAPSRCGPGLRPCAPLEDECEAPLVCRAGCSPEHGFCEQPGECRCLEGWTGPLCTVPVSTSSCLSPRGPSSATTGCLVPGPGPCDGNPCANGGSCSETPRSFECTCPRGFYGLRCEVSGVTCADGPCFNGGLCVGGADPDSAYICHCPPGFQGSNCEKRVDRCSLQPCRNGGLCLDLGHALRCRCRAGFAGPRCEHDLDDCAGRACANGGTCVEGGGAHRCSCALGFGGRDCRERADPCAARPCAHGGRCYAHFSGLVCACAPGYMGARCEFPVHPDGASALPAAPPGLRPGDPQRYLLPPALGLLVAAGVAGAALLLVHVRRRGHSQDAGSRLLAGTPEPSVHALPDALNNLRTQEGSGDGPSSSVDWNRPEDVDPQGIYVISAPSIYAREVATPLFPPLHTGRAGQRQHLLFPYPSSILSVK
monkey DLL3 on CHO K1-cyno DLL3 cells (cynomolgus monkey DLL3 extracellular segment joined to EpCAM transmembrane and intracellular regions) (cynomolgus monkey), sequence (chain, as listed by the source limits assumed): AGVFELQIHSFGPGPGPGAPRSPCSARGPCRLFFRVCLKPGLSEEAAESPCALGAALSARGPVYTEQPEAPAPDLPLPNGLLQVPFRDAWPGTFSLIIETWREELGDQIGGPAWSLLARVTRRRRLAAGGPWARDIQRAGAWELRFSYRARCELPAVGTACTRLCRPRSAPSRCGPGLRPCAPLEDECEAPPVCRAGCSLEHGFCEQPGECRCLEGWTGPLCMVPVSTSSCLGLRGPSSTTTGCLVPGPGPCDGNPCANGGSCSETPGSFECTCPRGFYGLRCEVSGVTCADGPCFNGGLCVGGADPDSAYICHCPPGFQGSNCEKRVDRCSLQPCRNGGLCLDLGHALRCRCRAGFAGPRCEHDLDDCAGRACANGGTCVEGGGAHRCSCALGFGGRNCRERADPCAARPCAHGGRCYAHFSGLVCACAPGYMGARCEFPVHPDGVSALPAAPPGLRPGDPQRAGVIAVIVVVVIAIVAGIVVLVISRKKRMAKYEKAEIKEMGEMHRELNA
human DLL4 protein (human), sequence (Q9NR61 27-524 limits assumed): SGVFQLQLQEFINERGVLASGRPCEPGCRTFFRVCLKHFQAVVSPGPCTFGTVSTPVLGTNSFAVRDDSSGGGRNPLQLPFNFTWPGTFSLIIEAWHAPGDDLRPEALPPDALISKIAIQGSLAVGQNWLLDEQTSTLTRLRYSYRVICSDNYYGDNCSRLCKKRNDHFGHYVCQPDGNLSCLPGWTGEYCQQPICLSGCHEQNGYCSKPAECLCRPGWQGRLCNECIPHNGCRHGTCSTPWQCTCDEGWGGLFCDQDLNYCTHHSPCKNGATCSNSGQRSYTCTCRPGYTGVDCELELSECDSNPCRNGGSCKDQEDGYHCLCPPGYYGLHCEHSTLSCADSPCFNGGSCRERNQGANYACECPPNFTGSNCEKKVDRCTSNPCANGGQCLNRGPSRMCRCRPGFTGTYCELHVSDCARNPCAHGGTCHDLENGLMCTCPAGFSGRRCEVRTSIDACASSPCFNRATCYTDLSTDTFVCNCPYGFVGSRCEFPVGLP
human DLL1 protein (human), sequence (O00548 18-540 limits assumed): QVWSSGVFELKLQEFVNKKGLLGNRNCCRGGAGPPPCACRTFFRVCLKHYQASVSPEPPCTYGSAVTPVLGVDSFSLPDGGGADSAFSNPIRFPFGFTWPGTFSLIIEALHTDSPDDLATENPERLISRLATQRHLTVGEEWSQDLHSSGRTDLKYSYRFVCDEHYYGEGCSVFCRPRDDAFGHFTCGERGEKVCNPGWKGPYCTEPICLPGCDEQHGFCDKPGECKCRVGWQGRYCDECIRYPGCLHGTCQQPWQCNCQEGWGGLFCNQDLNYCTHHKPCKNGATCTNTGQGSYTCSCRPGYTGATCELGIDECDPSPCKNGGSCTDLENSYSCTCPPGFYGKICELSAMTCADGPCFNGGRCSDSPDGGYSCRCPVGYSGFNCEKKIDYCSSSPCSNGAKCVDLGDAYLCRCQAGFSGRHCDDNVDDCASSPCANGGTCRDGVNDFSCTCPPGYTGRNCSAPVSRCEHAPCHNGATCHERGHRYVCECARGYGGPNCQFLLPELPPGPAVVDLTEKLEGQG

| MFI [1] | MFI [2] | MFI [3] | MFI [4] | MFI [5] | MFI [6] | MFI [7] | MFI [8] | Emax of OD450 nm binding value [9] | Emax of OD450 nm binding value [10] | MFI [11] | MFI [12] | MFI [13] | MFI [14] | MFI [15] | MFI [16] | MFI [17] | MFI [18] | Substance |
| --- | --- | --- | --- | --- | --- | --- | --- | --- | --- | --- | --- | --- | --- | --- | --- | --- | --- | --- |
| 476 MFI and 517 MFI | 500 MFI and 566 MFI | 465 MFI and 478 MFI | 529 MFI and 628 MFI | 432 MFI and 411 MFI | 334 MFI and 234 MFI | 235 MFI and 146 MFI | 188 MFI and 146 MFI | 0.05 OD450 | 0.05 OD450 | 5040 MFI and 2330 MFI | 5010 MFI and 2630 MFI | 4510 MFI and 1900 MFI | 4930 MFI and 2330 MFI | 1970 MFI and 700 MFI | 690 MFI and 299 MFI | 314 MFI and 189 MFI | 161 MFI and 185 MFI | SC16.56 (antibody) |
| – | – | – | – | – | – | – | – | 0.04 OD450 and 0.05 OD450 and 0.07 OD450 | 0.04 OD450 and 0.07 OD450 and 0.05 OD450 | – | – | – | – | – | – | – | – | hIgG1 (antibody) |
